In EP4631972A1, “SITE-SPECIFIC COUPLED PEGYLATED INTERLEUKIN-2 MUTANT WITH RECEPTOR AFFINITY PREFERENCE AND USE THEREOF” (priority 2022, dated 2024):

Key:
IL-2βγ dual receptor = target: T1, IL-2βγ dual receptor (Homo sapiens, UniProt P14784+P31785); assay: STAT5 reporter gene assay, activation of IL-2βγ dual receptor in 293EC18/βγ/JAK3/STAT5 cells; format: cell-based; conditions: for activation effect on the IL-2Rβγ dual receptor compared with control IL-2 N88R: Figure 1, concentration of 65.2 nM
T1 construct: Uniprot P14784 1Met-551Val was constructed into plasmid pcDNA3.1(+); Uniprot P31785 1Met-551Thr was constructed into plasmid pcDNA3.1/zeo; expressed in transfected cells; host or cells: 293EC18 cells, transient co-transfection with pCMV/JAK3 and PGL4.52/STAT5RE
T1 sequence (P14784 27-551): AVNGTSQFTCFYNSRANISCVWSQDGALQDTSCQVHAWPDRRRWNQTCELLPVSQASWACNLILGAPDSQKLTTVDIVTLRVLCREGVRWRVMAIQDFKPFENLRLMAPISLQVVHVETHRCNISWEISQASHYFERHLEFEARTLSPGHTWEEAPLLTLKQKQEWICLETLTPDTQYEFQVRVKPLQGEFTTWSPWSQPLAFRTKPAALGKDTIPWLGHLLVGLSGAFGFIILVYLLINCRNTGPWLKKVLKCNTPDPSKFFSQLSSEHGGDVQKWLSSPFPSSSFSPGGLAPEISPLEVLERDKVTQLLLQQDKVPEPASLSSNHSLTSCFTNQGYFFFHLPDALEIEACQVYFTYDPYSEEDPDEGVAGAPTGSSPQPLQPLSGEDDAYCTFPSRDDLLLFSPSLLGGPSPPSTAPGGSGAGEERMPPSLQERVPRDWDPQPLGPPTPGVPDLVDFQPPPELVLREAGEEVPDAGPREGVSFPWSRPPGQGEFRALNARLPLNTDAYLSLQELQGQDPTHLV
T1 sequence (P31785 23-369): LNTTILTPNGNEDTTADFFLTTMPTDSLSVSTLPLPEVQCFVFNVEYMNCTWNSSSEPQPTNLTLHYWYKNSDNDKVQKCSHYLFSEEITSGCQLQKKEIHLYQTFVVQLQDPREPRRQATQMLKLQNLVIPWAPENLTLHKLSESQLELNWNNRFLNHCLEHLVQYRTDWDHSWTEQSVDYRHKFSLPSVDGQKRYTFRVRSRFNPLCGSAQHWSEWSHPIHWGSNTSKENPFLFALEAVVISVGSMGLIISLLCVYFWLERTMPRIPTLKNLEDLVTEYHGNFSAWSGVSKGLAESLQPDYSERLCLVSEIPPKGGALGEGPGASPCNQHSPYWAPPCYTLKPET
Procedure: Since the binding of IL-2 to the β and γ subunits of its receptor induces STAT5 phosphorylation, which subsequently leads to dimerization and translocation into the nucleus to promote target gene transcription, this example evaluates the ability of the mutant IL-2 polypeptides to induce signaling through the IL-2 receptor by measuring STAT5 phosphorylation.
Adherent 293EC18 cells were cultured to about 90% confluence using conventional methods. After trypsin digestion, the cells were resuspended in cell culture medium to 4×10^5 cells/ml and 50 µl/well were added to two 96-well cell culture plates. After incubation at 37°C for 48 h, the supernatant was aspirated and fresh culture medium was added. According to the manufacturer's method, four plasmids, pcDNA3.1(+)/CD122 (constructed by Nanjing Novoacine Biotechnology Co., Ltd, Uniprot P14784 1Met-551Val was constructed into plasmid pcDNA3.1(+)), pcDNA3.1/puro/CD132 (constructed by Nanjing Novoacine Biotechnology Co., Ltd, Uniprot P31785 1Met-551Thr was constructed into plasmid pcDNA3.1/zeo), pCMV/JAK3 (Sino Biological), and PGL4.52/STAT5RE (Promega) were transiently transfected into 293EC18 cells using a cationic transfection reagent (ExFect Transfection Reagent, Vazyme). The obtained cells were named 293EC18/βγ/JAK3/STAT5 cells. Alternatively, five plasmids, pcDNA3.1/zeo/CD25 (constructed by Nanjing Novoacine Biotechnology Co., Ltd, Uniprot P01589 1Met-551Ile constructed into plasmid pcDNA3.1/zeo), pcDNA3.1(+)/CD122 (constructed by Nanjing Novoacine Biotechnology Co., Ltd, Uniprot P14784 1Met-551Val constructed into plasmid pcDNA3.1(+)), pcDNA3.1/puro/CD132 (constructed by Nanjing Novoacine Biotechnology Co., Ltd, UniprotP31785 1Met-551Thr constructed into plasmid pcDNA3.1/zeo), pCMV/JAK3 (Sino Biological), and PGL4.52/STAT5RE (Promega) were transiently transferred into 293EC18 cells, and the obtained cells were named 293EC18/αβγ/JAK3/STAT5 cells. The transfected cells were incubated at 37°C and 5% CO2 for another 6 h.
Each IL2 mutant was diluted 4-fold in a gradient manner using PBS buffer, with a total of 11 dilutions and a starting concentration of 65.2 nM. In the above cell culture plates, 50 µl/well of each of the serially diluted IL2 mutant samples was added in duplicate. Then, the cell culture plate was placed in an incubator at 37°C and 5% CO2 for overnight culture. The cell culture plates were kept at room temperature for 20 ± 5 minutes to equilibrate the plates to room temperature. Bio-Lite Luciferase Assay System reagents that have been mixed and equilibrated to room temperature were added to the cell culture plates to be tested at 100 µl/well, placed on a microplate shaker at 450 rpm to mix for 2 minutes, then allowed to stand at room temperature for 3 minutes, and the chemiluminescence value was detected with an enzyme plate reader.
The logarithm of the final concentration of each IL-2 mutant sample was used as the X-axis, and the chemiluminescence detection results were used as the Y-axis for plotting. Data were analyzed using the four-parameter logistic regression model in GraphPad Prism 9. Table 2 EC50 values for the activation of the IL-2αβγ triple receptor by PEG-IL-2 mutants as determined by a reporter gene assay.
According to the method of Example 3, each polyethylene glycol-modified mutant obtained in this example was assessed for the binding preference to the IL2 receptors by a reporter assay. Table 4 EC50 values for the activation of the IL-2αβγ triple receptor by PEG-IL-2 mutants as determined by a reporter gene assay.
Referring to Example 3, the phosphorylation of STAT5 was used to evaluate the ability of the PEG-modified IL-2 mutants having a non-natural amino acid mutation prepared in Example 14 to induce signal transduction via the IL-2 receptor. […]

[1] = Effects on body weight and physiological characteristics of mice; conditions: 1 mg/kg s.c. once every three days, three times
Procedure: SPF grade Balb/c mice were purchased, with 3 mice in each group. Administration was started on the day of grouping. The test substance or PBS (negative control group) was administered subcutaneously at a dose of 1 mg/kg, once every three days, for a total of three times. The mice were weighed before each administration and three days after the third administration .

B1: 80K-1PEG-IL2-N88R-N77C: IL-2 mutant N88R, N77C, conjugation site 77, PEG molecular weight 80kD (conjugate)
chain: APTSSSTKKTQLQLEHLLLDLQMILNGINNYKNPKLTRMLTFKFYMPKKATELKHLQCLEEELKPLEEVLNLAQSKC(PEG 80 kDa)FHLRPRDLISRINVIVLELKGSETTFMCEYADETATIVEFLNRWITFSQSIISTLT
- activation effect on the IL-2Rβγ dual receptor compared with control IL-2 N88R (IL-2βγ dual receptor): lower activation effects
- activation effect on the IL-2Rβγ dual receptor compared with control IL-2 N88R (IL-2βγ dual receptor; listed as 80k-PEG-IL2-N88R-N77C): the most significant reduction in activation ability
- activation effect on / affinity to IL-2Rβγ dual receptor compared with control IL-2 N88R (IL-2βγ dual receptor; Figure 2, all concentrations): further reduced the affinity to IL-2Rβγ
- toxic side effects on mice [1]: less toxic side effects
- visual observation of the mice [1]: in good condition
- body weight compared with negative control ([1]; three days after the third dose): not significantly different from that of the negative control
